Reference: paper PMC6139261 (Archives of biochemistry and biophysics, 2018)
The star is where a group is joined. FITC = O=C1OC2(c3ccc(O)cc3Oc3cc(O)ccc32)c2ccc(NC(=S)*)cc21

B1: peptide B2B (peptide)
peptide: {FITC}-QQFRNRRKLTFLKKLGWFNQ-NH2
B2: peptide B1 (peptide)
peptide: {FITC}-AHAWQHQGKTLFISRKTYRI-NH2
B3: peptide B2T1 (peptide)
peptide: {FITC}-KLFFNLR-NH2
B4: peptide B1N (peptide)
peptide: FHAWQHQGKTLAISRKTYRI
modifications: FITC on the N-terminus; C-terminal amide
B5: peptide B2N (peptide)
peptide: {FITC}-QLWQGQFRNLRRKTFFKKLN-NH2
B6: peptide B2T2 (peptide)
peptide: {FITC}-RLGWFNQ-NH2
B7: peptide B2A (peptide)
peptide: {FITC}-QGQFRNLRRKQLWTFFLNKK-NH2
B8: peptide B1T (peptide)
peptide: {FITC}-KTLFISR-NH2

target: ATP-hydrolysis deficient substrate-trapping ClpB variant (E279Q/E678Q) (Escherichia coli, UniProt P63284 1-857, E279Q | E678Q); experiment: fluorescence polarisation; details: not given

First: B1
Second: B2
The Kd of the first is 4.1-fold lower: 11.5 ± 0.52 nM for the first, 46.8 ± 1.5 nM for the second. The first binds more tightly here.

First: B3
Second: B4
The Kd of the first is 130-fold higher: 912 ± 231 nM for the first, 7.26 ± 0.32 nM for the second. The second binds more tightly here.

First: B5
Second: B6
The Kd of the first is lower: 17.5 ± 0.92 nM for the first, greater than 1000 nM for the second.

Compared with B7, B8 is 32-fold higher in Kd: 10.2 ± 0.8 nM for the first, 329 ± 39 nM for the second. The first binds more tightly here.

target: substrate-trapping ClpB variant (E279Q/E678Q) (Escherichia coli, UniProt P63284, E279Q/E678Q); experiment: not given; format: binding; details: ClpB with ATP, buffer A, room temperature

In the case of O=C1OC2(c3ccc(O)cc3Oc3cc(O)ccc32)c2ccccc21 [fluorescein], the “anisotropy change of free label with ClpB” value is reported as “did not affect the anisotropy”.
